Experimental data: patent US20240279278A1, “NMU RECEPTOR 2 AGONISTS” (Boehringer Ingelheim International GmbH, priority 2023, published 2024)

T1: human neuromedin U receptor 1 (human, UniProt Q9HB89 24-426)
T1 sequence (looked up): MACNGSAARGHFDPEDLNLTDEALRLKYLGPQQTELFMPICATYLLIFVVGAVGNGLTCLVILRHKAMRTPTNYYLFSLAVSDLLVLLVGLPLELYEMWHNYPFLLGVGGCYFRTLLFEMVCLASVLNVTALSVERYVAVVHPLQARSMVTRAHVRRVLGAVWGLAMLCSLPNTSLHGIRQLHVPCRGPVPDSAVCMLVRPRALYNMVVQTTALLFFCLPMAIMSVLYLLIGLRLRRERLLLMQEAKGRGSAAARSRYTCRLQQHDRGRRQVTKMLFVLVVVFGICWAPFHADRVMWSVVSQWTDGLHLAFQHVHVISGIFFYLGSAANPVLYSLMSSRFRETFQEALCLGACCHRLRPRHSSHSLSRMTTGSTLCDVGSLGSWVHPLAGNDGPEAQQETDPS

B1: C18DA-gGlu3-Sar15-AEPipAc-Tyr-Phe-NMeLeu-Nle-Dbu-NMeAla-Arg-Gly-NH2 (peptide)
peptide: EEEXXXXXXXXXXXXXXXXYFLXXARG
HELM: PEPTIDE1{[O=C(O)CCCCCCCCCCCCCCCCC(=O)[*:2]].[gGlu].[gGlu].[gGlu].[Sar].[Sar].[Sar].[Sar].[Sar].[Sar].[Sar].[Sar].[Sar].[Sar].[Sar].[Sar].[Sar].[Sar].[Sar].[O=C(CN1CCN(CCN[*:1])CC1)[*:2]].Y.F.[meL].[Nle].[Dab].[meA].R.G.[am]}$$$$V2.0
SMILES: CCCC[C@H](NC(=O)[C@H](CC(C)C)N(C)C(=O)[C@H](Cc1ccccc1)NC(=O)[C@H](Cc1ccc(O)cc1)NC(=O)CN1CCN(CCNC(=O)CN(C)C(=O)CN(C)C(=O)CN(C)C(=O)CN(C)C(=O)CN(C)C(=O)CN(C)C(=O)CN(C)C(=O)CN(C)C(=O)CN(C)C(=O)CN(C)C(=O)CN(C)C(=O)CN(C)C(=O)CN(C)C(=O)CN(C)C(=O)CN(C)C(=O)CC[C@H](NC(=O)CC[C@H](NC(=O)CC[C@H](NC(=O)CCCCCCCCCCCCCCCCC(=O)O)C(=O)O)C(=O)O)C(=O)O)CC1)C(=O)N[C@@H](CCN)C(=O)N(C)[C@@H](C)C(=O)N[C@@H](CCCNC(=N)N)C(=O)NCC(N)=O
B2: C18DA-gGlu3-Sar12-AEPipAc-Tyr-Phe-NMeLeu-Nle-Orn-NMeAla-Arg-Gly-NH2 (peptide)
peptide: EEEXXXXXXXXXXXXXYFLXXARG
HELM: PEPTIDE1{[O=C(O)CCCCCCCCCCCCCCCCC(=O)[*:2]].[gGlu].[gGlu].[gGlu].[Sar].[Sar].[Sar].[Sar].[Sar].[Sar].[Sar].[Sar].[Sar].[Sar].[Sar].[Sar].[O=C(CN1CCN(CCN[*:1])CC1)[*:2]].Y.F.[meL].[Nle].[Orn].[meA].R.G.[am]}$$$$V2.0
SMILES: CCCC[C@H](NC(=O)[C@H](CC(C)C)N(C)C(=O)[C@H](Cc1ccccc1)NC(=O)[C@H](Cc1ccc(O)cc1)NC(=O)CN1CCN(CCNC(=O)CN(C)C(=O)CN(C)C(=O)CN(C)C(=O)CN(C)C(=O)CN(C)C(=O)CN(C)C(=O)CN(C)C(=O)CN(C)C(=O)CN(C)C(=O)CN(C)C(=O)CN(C)C(=O)CN(C)C(=O)CC[C@H](NC(=O)CC[C@H](NC(=O)CC[C@H](NC(=O)CCCCCCCCCCCCCCCCC(=O)O)C(=O)O)C(=O)O)C(=O)O)CC1)C(=O)N[C@@H](CCCN)C(=O)N(C)[C@@H](C)C(=O)N[C@@H](CCCNC(=N)N)C(=O)NCC(N)=O
B3: C18DA-gGlu3-Sar9-AEPipAc-Tyr-Phe-NMeLeu-Nle-Dbu-Pro-Arg-Gly-NH2 (peptide)
peptide: EEEXXXXXXXXXXYFLXXPRG
HELM: PEPTIDE1{[O=C(O)CCCCCCCCCCCCCCCCC(=O)[*:2]].[gGlu].[gGlu].[gGlu].[Sar].[Sar].[Sar].[Sar].[Sar].[Sar].[Sar].[Sar].[Sar].[O=C(CN1CCN(CCN[*:1])CC1)[*:2]].Y.F.[meL].[Nle].[Dab].P.R.G.[am]}$$$$V2.0
SMILES: CCCC[C@H](NC(=O)[C@H](CC(C)C)N(C)C(=O)[C@H](Cc1ccccc1)NC(=O)[C@H](Cc1ccc(O)cc1)NC(=O)CN1CCN(CCNC(=O)CN(C)C(=O)CN(C)C(=O)CN(C)C(=O)CN(C)C(=O)CN(C)C(=O)CN(C)C(=O)CN(C)C(=O)CN(C)C(=O)CN(C)C(=O)CC[C@H](NC(=O)CC[C@H](NC(=O)CC[C@H](NC(=O)CCCCCCCCCCCCCCCCC(=O)O)C(=O)O)C(=O)O)C(=O)O)CC1)C(=O)N[C@@H](CCN)C(=O)N1CCC[C@H]1C(=O)N[C@@H](CCCNC(=N)N)C(=O)NCC(N)=O
B4: C18DA-gGlu3-Sar15-AEPipAc-Tyr-Phe-NMeLeu-Nle-Orn-NMeAla-Arg-Gly-NH2 (peptide)
peptide: EEEXXXXXXXXXXXXXXXXYFLXXARG
HELM: PEPTIDE1{[O=C(O)CCCCCCCCCCCCCCCCC(=O)[*:2]].[gGlu].[gGlu].[gGlu].[Sar].[Sar].[Sar].[Sar].[Sar].[Sar].[Sar].[Sar].[Sar].[Sar].[Sar].[Sar].[Sar].[Sar].[Sar].[O=C(CN1CCN(CCN[*:1])CC1)[*:2]].Y.F.[meL].[Nle].[Orn].[meA].R.G.[am]}$$$$V2.0
SMILES: CCCC[C@H](NC(=O)[C@H](CC(C)C)N(C)C(=O)[C@H](Cc1ccccc1)NC(=O)[C@H](Cc1ccc(O)cc1)NC(=O)CN1CCN(CCNC(=O)CN(C)C(=O)CN(C)C(=O)CN(C)C(=O)CN(C)C(=O)CN(C)C(=O)CN(C)C(=O)CN(C)C(=O)CN(C)C(=O)CN(C)C(=O)CN(C)C(=O)CN(C)C(=O)CN(C)C(=O)CN(C)C(=O)CN(C)C(=O)CN(C)C(=O)CC[C@H](NC(=O)CC[C@H](NC(=O)CC[C@H](NC(=O)CCCCCCCCCCCCCCCCC(=O)O)C(=O)O)C(=O)O)C(=O)O)CC1)C(=O)N[C@@H](CCCN)C(=O)N(C)[C@@H](C)C(=O)N[C@@H](CCCNC(=N)N)C(=O)NCC(N)=O
B5: C18DA-gGlu3-Sar15-AEPipAc-Tyr-Phe-NMeLeu-Nle-Dbu-Pro-Arg-Gly-NH2 (peptide)
peptide: EEEXXXXXXXXXXXXXXXXYFLXXPRG
HELM: PEPTIDE1{[O=C(O)CCCCCCCCCCCCCCCCC(=O)[*:2]].[gGlu].[gGlu].[gGlu].[Sar].[Sar].[Sar].[Sar].[Sar].[Sar].[Sar].[Sar].[Sar].[Sar].[Sar].[Sar].[Sar].[Sar].[Sar].[O=C(CN1CCN(CCN[*:1])CC1)[*:2]].Y.F.[meL].[Nle].[Dab].P.R.G.[am]}$$$$V2.0
SMILES: CCCC[C@H](NC(=O)[C@H](CC(C)C)N(C)C(=O)[C@H](Cc1ccccc1)NC(=O)[C@H](Cc1ccc(O)cc1)NC(=O)CN1CCN(CCNC(=O)CN(C)C(=O)CN(C)C(=O)CN(C)C(=O)CN(C)C(=O)CN(C)C(=O)CN(C)C(=O)CN(C)C(=O)CN(C)C(=O)CN(C)C(=O)CN(C)C(=O)CN(C)C(=O)CN(C)C(=O)CN(C)C(=O)CN(C)C(=O)CN(C)C(=O)CC[C@H](NC(=O)CC[C@H](NC(=O)CC[C@H](NC(=O)CCCCCCCCCCCCCCCCC(=O)O)C(=O)O)C(=O)O)C(=O)O)CC1)C(=O)N[C@@H](CCN)C(=O)N1CCC[C@H]1C(=O)N[C@@H](CCCNC(=N)N)C(=O)NCC(N)=O
B6: C18DA-gGlu3-Sar12-AEPipAc-Tyr-Phe-NMeLeu-Nle-Arg-NMeAla-Arg-Gly-NH2 (peptide)
peptide: EEEXXXXXXXXXXXXXYFLXRARG
HELM: PEPTIDE1{[O=C(O)CCCCCCCCCCCCCCCCC(=O)[*:2]].[gGlu].[gGlu].[gGlu].[Sar].[Sar].[Sar].[Sar].[Sar].[Sar].[Sar].[Sar].[Sar].[Sar].[Sar].[Sar].[O=C(CN1CCN(CCN[*:1])CC1)[*:2]].Y.F.[meL].[Nle].R.[meA].R.G.[am]}$$$$V2.0
SMILES: CCCC[C@H](NC(=O)[C@H](CC(C)C)N(C)C(=O)[C@H](Cc1ccccc1)NC(=O)[C@H](Cc1ccc(O)cc1)NC(=O)CN1CCN(CCNC(=O)CN(C)C(=O)CN(C)C(=O)CN(C)C(=O)CN(C)C(=O)CN(C)C(=O)CN(C)C(=O)CN(C)C(=O)CN(C)C(=O)CN(C)C(=O)CN(C)C(=O)CN(C)C(=O)CN(C)C(=O)CC[C@H](NC(=O)CC[C@H](NC(=O)CC[C@H](NC(=O)CCCCCCCCCCCCCCCCC(=O)O)C(=O)O)C(=O)O)C(=O)O)CC1)C(=O)N[C@@H](CCCNC(=N)N)C(=O)N(C)[C@@H](C)C(=O)N[C@@H](CCCNC(=N)N)C(=O)NCC(N)=O
B7: C18DA-gGlu3-Sar12-AEPipAc-Tyr-Phe-NMeLeu-Nle-Arg-Pro-Arg-Gly-NH2 (peptide)
peptide: EEEXXXXXXXXXXXXXYFLXRPRG
HELM: PEPTIDE1{[O=C(O)CCCCCCCCCCCCCCCCC(=O)[*:2]].[gGlu].[gGlu].[gGlu].[Sar].[Sar].[Sar].[Sar].[Sar].[Sar].[Sar].[Sar].[Sar].[Sar].[Sar].[Sar].[O=C(CN1CCN(CCN[*:1])CC1)[*:2]].Y.F.[meL].[Nle].R.P.R.G.[am]}$$$$V2.0
SMILES: CCCC[C@H](NC(=O)[C@H](CC(C)C)N(C)C(=O)[C@H](Cc1ccccc1)NC(=O)[C@H](Cc1ccc(O)cc1)NC(=O)CN1CCN(CCNC(=O)CN(C)C(=O)CN(C)C(=O)CN(C)C(=O)CN(C)C(=O)CN(C)C(=O)CN(C)C(=O)CN(C)C(=O)CN(C)C(=O)CN(C)C(=O)CN(C)C(=O)CN(C)C(=O)CN(C)C(=O)CC[C@H](NC(=O)CC[C@H](NC(=O)CC[C@H](NC(=O)CCCCCCCCCCCCCCCCC(=O)O)C(=O)O)C(=O)O)C(=O)O)CC1)C(=O)N[C@@H](CCCNC(=N)N)C(=O)N1CCC[C@H]1C(=O)N[C@@H](CCCNC(=N)N)C(=O)NCC(N)=O
B8: C18DA-gGlu3-Sar15-AEPipAc-Tyr-Phe-NMeLeu-Nle-Orn-Pro-Arg-Gly-NH2 (peptide)
peptide: EEEXXXXXXXXXXXXXXXXYFLXXPRG
HELM: PEPTIDE1{[O=C(O)CCCCCCCCCCCCCCCCC(=O)[*:2]].[gGlu].[gGlu].[gGlu].[Sar].[Sar].[Sar].[Sar].[Sar].[Sar].[Sar].[Sar].[Sar].[Sar].[Sar].[Sar].[Sar].[Sar].[Sar].[O=C(CN1CCN(CCN[*:1])CC1)[*:2]].Y.F.[meL].[Nle].[Orn].P.R.G.[am]}$$$$V2.0
SMILES: CCCC[C@H](NC(=O)[C@H](CC(C)C)N(C)C(=O)[C@H](Cc1ccccc1)NC(=O)[C@H](Cc1ccc(O)cc1)NC(=O)CN1CCN(CCNC(=O)CN(C)C(=O)CN(C)C(=O)CN(C)C(=O)CN(C)C(=O)CN(C)C(=O)CN(C)C(=O)CN(C)C(=O)CN(C)C(=O)CN(C)C(=O)CN(C)C(=O)CN(C)C(=O)CN(C)C(=O)CN(C)C(=O)CN(C)C(=O)CN(C)C(=O)CC[C@H](NC(=O)CC[C@H](NC(=O)CC[C@H](NC(=O)CCCCCCCCCCCCCCCCC(=O)O)C(=O)O)C(=O)O)C(=O)O)CC1)C(=O)N[C@@H](CCCN)C(=O)N1CCC[C@H]1C(=O)N[C@@H](CCCNC(=N)N)C(=O)NCC(N)=O

Each binder was assayed against T1, human neuromedin U receptor 1 (assay: cell-based or functional assay).

EC50 (hNMUR1) buffer [nM]	Binder
> 1000	B1
> 1000	B2
1000	B3
> 1000	B4
> 1000	B5
1000	B6
200	B7
> 1000	B8
